Test results taken from patent US20210115154A1 (Chugai, published 2021).

T1: human MASP-1 (human, UniProt P48740 20-699)
T1 sequence: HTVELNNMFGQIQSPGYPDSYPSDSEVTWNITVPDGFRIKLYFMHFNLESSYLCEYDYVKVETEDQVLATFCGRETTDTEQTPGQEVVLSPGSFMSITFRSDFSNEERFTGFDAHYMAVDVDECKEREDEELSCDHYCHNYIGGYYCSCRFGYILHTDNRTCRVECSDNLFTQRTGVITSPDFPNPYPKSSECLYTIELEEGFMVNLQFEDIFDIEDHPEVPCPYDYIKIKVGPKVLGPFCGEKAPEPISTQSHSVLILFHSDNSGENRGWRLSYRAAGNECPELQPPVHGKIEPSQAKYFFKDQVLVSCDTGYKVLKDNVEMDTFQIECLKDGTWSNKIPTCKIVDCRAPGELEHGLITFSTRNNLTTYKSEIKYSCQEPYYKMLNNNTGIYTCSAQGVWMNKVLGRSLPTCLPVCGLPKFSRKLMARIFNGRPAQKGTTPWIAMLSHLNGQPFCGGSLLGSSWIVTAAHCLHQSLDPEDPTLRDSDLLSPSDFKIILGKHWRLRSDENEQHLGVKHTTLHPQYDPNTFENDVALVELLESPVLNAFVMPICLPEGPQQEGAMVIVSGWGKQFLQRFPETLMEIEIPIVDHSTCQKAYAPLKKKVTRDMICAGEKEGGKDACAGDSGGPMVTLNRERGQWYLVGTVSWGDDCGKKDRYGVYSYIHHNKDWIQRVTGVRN

T2: Human MASP-3 (CCP1-CCP2-SP S664A) (human, labelled with NHS-PEG4-Biotin (sites not given))
T2 construct: Biotinylated for the cross-reactivity ELISA; also called N-terminally Flag-tagged human MASP-3 (CCP1-CCP2-SP S664A); not shown: N-terminal Flag-tag
T2 chain: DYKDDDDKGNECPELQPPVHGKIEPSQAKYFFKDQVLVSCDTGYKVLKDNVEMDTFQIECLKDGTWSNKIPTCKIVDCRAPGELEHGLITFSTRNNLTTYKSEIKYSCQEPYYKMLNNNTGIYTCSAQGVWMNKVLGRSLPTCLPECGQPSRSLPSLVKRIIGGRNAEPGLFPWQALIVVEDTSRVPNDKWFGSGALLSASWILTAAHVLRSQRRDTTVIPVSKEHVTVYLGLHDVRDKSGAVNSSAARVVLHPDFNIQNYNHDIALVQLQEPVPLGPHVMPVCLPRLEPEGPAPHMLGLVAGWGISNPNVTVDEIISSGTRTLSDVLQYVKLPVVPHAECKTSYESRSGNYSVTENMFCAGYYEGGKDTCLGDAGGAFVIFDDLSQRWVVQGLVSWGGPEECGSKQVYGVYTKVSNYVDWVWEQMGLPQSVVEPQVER

T3: Human MASP-1 (CCP1-CCP2-SP S646A) (human, UniProt P48740 298-699, labelled with NHS-PEG4-Biotin (sites not given))
T3 construct: biotinylated for the ELISAs; also called N-terminally Flag-tagged human MASP-1 (CCP1-CCP2-SP S646A); not shown: N-terminal Flag-tag
T3 sequence: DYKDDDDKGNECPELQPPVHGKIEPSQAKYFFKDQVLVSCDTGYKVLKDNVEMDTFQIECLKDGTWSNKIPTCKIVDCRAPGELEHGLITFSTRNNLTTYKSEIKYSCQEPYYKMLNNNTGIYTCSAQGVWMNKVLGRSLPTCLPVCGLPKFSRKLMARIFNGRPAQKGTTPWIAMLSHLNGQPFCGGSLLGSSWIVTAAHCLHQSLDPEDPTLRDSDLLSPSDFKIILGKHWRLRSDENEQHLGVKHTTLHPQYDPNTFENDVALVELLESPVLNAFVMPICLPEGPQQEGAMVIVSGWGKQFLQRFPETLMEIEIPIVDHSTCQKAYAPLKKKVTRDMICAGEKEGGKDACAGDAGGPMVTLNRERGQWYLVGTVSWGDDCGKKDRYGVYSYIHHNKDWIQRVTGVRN

B1: MAS0141aa (antibody, human IgG4 S228P, kappa, V domains shown)
VH: QSVEESGGRLVTPGTPLTLTCTASGFSLINYYMTWVRQAPGKGLEWIGIINTDGGTYYASWAKGRFTISRTSTTVDLKMTSLTTEDTATYFCARGVFTGGWTGMRTNLWGPGTLVTVSS
VL: DVVMTQTPASVEAAVGGTVTIKCQASEDIYILLAWYQQKPGQPPKLLIYAASNLESGVPSRFKGSGSGTEFTLTISDLECADAATYYCQCTYGSSSSNAFGGGTKVEIKR
notes: Rabbit/human chimeric antibody: rabbit variable regions recombined with F760G4 and kOMTC constant regions; also called anti-MASP-1 chimeric mAb MAS0141aa
B2: MAS0116aa (antibody, human IgG4 S228P, kappa, V domains shown)
VH: QSLEESGGRLVTPGTPLTLTCTASGFSLSSCYMSWVRQAPGEGLEWIGTIYTGSGATYYASWAKGRFTVSITSTTVDLKITSPTTEDTATYFCARAIYPGSSSSNLCAFDLWGPGTLVTVSS
VL: QVLTQTPASVSAAVGGTVTINCQASQSVYDNNWLAWYQQKPGQPPKLLIYQASSLASGVPSRFKGSGSGAQFTLTISDLECDDAATYFCQGYYAGVLYSFGGGTKVEIKR
notes: Rabbit/human chimeric antibody: rabbit variable regions recombined with F760G4 and kOMTC constant regions; also called anti-MASP-1 chimeric mAb MAS0116aa
B3: MAS0177hh (antibody, human IgG4 S228P, kappa, V domains shown)
VH: QSVEESGGRLVTPGTPLTLTCTASGFSLSSAYMNWVRQAPGKGLEWIGIIYASGSTWYASWAKGRFTISKTSTTVDLKITSPTTEDTATYFCARDDYGTADLWGPGTLVTVSS
VL: AVVLTQTASPVSAPVGGTVTIKCQASQSIGSSLAWYQQKPGQSPKLLIYGASTLVSGVSSRFSGSRSGTEFSLTISDLECADAATYYCQNYYLSSSSADRRTFGGGTKVEIKR
notes: Rabbit/human chimeric antibody: rabbit variable regions recombined with F760G4 and kOMTC constant regions; also called anti-MASP-1 chimeric mAb MAS0177hh
B4: MAS0154dd (antibody, human IgG4 S228P, kappa, V domains shown)
VH: QSVEESGGRLVTPGTPLTLTCTVSGFSLSNYNMGWVRQAPGEGLEYIGIISSQGDIYYATWAKGRFTISKTSTTVDLKITSPTTEDTATYFCARARHVGSAADSYFHLWGLGTLVTVSS
VL: AVVLTQTASPVSAAVGGTVTINCQASEEIYRNLAWYQQKPGQRPKLLIYGASNLASGVPSRFSGSGSGTEYTLTISDLECADAATYYCQRYAWGKNSADGNTFGGGTKVEIKR
notes: Rabbit/human chimeric antibody: rabbit variable regions recombined with F760G4 and kOMTC constant regions; also called anti-MASP-1 chimeric mAb MAS0154dd
B5: MAS0102dd (antibody, human IgG4 S228P, kappa, V domains shown)
VH: QSVEESGGRLVTPGTPLTLTCTVSGFSLSSYAMSWVRQAPGKGLEWIGIITNLDNTYYANWAKGRFTISKTSTTVDLKITSPTTEDTAAYLCARERIKRKYSYDDYGGWAFDPWGPGTLVTVSS
VL: QVLTQTPSSVSGPVGGTVTINCQAIENIYRSLAWYQQKPGQPPKLLIYDTSDLASGVPSRFSGSGSGTEYTLTISGVQCDDAATYYCQSYYYSSVTYNAFGGGTKVEIKR
notes: Rabbit/human chimeric antibody: rabbit variable regions recombined with F760G4 and kOMTC constant regions; also called anti-MASP-1 chimeric mAb MAS0102dd
B6: MAS0114bb (antibody, human IgG4 S228P, kappa, V domains shown)
VH: QSVEESGGRLVTPGTPLTLTCTASGFDINNYAIHWVRQAPGEGLEWIGYIYARSGVTWYASWVKGRFTISKTSTTVDLKMTSLTTEDTATYFCARVLAGGGYANTGLSLWGPGTLVTVSS
VL: DIVMTQTPSSVSAAVGGTVTIKCQASQNIGYSSAWYQQKPGQRPKLMIYGASTLASGVPSRFSGSGSGTEYTLTISGVQCDDAATYYCQSNYISSGSVDGTFGGGTKVEIKR
notes: Rabbit/human chimeric antibody: rabbit variable regions recombined with F760G4 and kOMTC constant regions; also called anti-MASP-1 chimeric mAb MAS0114bb

target: T1, human MASP-1; assay: cell-based or functional assay

B1 and B2 are within 1.5-fold of each other in “IC50 of inhibition of human C4c deposition (C4c ELISA, normal human serum on mannan)” value: 0.45 µg/mL for the first, 0.47 µg/mL for the second.

Compared with B3, B4 is 30-fold lower in “IC50 of inhibition of human C4c deposition (C4c ELISA, normal human serum on mannan)” value: 3.29 µg/mL for the first, 0.11 µg/mL for the second.

Going from B5 to B6, the “IC50 of inhibition of human C4c deposition (C4c ELISA, normal human serum on mannan)” value falls from 0.29 µg/mL to 0.14 µg/mL (2.1-fold).

Target: T2, Human MASP-3 (CCP1-CCP2-SP S664A)
Assay: ELISA, antibody captured by goat anti-human IgG, 8 nM biotinylated antigen, streptavidin-HRP
Procedure: (§1) ELISA assay was used to check the cross-reactivity of the chimeric monoclonal antibodies generated in 3.1 against human MASP-1 and human MASP-3. Goat anti-human IgG polyclonal antibody (Thermo Scientific, H10500) was diluted to 1 micro g/ml with PBS (-) and added to 384-well MAXISorp plates (Nunc, Cat No. 164688). The plates were incubated for 1 hour at room temperature, and blocked with Blocking One (Nacalai Tesque, Cat No. 03953-95) diluted 5 times. The plates were incubated for 1 hour, washed, and anti-MASP-1 antibody was added and incubated for 1 hour. Human MASP-1 (CCP1-CCP2-SP S646A) or human MASP-3 (CCP1-CCP2-SP S664A) was labelled with NHS-PEG4-Biotin (PIERCE, Cat No. 21329). After incubation, the plates were washed and 8 nM of labeled antigen was added and incubated for 1 hour. After incubation, the plates were washed and Streptavidin-HRP conjugate (Thermo Scientific 21130) were added. After 1 hour incubation, binding of biotinylated antigen was detected by the addition of ABTS (KPL, Cat No. 50-66-06). Anti-MASP-1 monoclonal antibodies listed in Table 5 were selected as MASP-1 specific antibodies and used for further analysis.

Compared with B1, B2 is higher in “absorbance at 405 nm after background subtraction” value: -0.147 absorbance at 405 nm for the first, 0.055 absorbance at 405 nm for the second.

Compared with B4, B5 is lower in “absorbance at 405 nm after background subtraction” value: 0.078 absorbance at 405 nm for the first, -0.027 absorbance at 405 nm for the second.

For B6, the “absorbance at 405 nm after background subtraction” value was -0.068 absorbance at 405 nm.

B3 gave an absorbance at 405 nm after background subtraction (absorbance at 405 nm) of 0.388.

target: T3, Human MASP-1 (CCP1-CCP2-SP S646A); assay: as above
Procedure: as §1

Going from B1 to B2, the “absorbance at 405 nm after background subtraction” value rises from 1.51 absorbance at 405 nm to 1.72 absorbance at 405 nm.

First: B3
Second: B4
The “absorbance at 405 nm after background subtraction” value of the first is lower: 0.898 absorbance at 405 nm for the first, 1.95 absorbance at 405 nm for the second.

Going from B5 to B6, the “absorbance at 405 nm after background subtraction” value falls from 1.98 absorbance at 405 nm to 1.79 absorbance at 405 nm.
